Data from PMC7282817.

biological target: Spen RRM2-4 RRM3 Mt ((SHARP named as human homolog for the pET28a constructs; gene listed as mouse NM_019763.2)) (UniProt Q96T58); experiment: fluorescence anisotropy; settings: pH 8.3; FA: 45 mM KCl, 5 mM NaCl, 50 mM Tris pH 7.5 (WT) or 8.3 (RRM3 Mt), 5% glycerol, RNA 1-3 nM, room temperature 40-60 min; competition EMSA: 50 mM Tris pH 7.5 …
Sequence of UniProt Q96T58 (Q96T58 whole entry): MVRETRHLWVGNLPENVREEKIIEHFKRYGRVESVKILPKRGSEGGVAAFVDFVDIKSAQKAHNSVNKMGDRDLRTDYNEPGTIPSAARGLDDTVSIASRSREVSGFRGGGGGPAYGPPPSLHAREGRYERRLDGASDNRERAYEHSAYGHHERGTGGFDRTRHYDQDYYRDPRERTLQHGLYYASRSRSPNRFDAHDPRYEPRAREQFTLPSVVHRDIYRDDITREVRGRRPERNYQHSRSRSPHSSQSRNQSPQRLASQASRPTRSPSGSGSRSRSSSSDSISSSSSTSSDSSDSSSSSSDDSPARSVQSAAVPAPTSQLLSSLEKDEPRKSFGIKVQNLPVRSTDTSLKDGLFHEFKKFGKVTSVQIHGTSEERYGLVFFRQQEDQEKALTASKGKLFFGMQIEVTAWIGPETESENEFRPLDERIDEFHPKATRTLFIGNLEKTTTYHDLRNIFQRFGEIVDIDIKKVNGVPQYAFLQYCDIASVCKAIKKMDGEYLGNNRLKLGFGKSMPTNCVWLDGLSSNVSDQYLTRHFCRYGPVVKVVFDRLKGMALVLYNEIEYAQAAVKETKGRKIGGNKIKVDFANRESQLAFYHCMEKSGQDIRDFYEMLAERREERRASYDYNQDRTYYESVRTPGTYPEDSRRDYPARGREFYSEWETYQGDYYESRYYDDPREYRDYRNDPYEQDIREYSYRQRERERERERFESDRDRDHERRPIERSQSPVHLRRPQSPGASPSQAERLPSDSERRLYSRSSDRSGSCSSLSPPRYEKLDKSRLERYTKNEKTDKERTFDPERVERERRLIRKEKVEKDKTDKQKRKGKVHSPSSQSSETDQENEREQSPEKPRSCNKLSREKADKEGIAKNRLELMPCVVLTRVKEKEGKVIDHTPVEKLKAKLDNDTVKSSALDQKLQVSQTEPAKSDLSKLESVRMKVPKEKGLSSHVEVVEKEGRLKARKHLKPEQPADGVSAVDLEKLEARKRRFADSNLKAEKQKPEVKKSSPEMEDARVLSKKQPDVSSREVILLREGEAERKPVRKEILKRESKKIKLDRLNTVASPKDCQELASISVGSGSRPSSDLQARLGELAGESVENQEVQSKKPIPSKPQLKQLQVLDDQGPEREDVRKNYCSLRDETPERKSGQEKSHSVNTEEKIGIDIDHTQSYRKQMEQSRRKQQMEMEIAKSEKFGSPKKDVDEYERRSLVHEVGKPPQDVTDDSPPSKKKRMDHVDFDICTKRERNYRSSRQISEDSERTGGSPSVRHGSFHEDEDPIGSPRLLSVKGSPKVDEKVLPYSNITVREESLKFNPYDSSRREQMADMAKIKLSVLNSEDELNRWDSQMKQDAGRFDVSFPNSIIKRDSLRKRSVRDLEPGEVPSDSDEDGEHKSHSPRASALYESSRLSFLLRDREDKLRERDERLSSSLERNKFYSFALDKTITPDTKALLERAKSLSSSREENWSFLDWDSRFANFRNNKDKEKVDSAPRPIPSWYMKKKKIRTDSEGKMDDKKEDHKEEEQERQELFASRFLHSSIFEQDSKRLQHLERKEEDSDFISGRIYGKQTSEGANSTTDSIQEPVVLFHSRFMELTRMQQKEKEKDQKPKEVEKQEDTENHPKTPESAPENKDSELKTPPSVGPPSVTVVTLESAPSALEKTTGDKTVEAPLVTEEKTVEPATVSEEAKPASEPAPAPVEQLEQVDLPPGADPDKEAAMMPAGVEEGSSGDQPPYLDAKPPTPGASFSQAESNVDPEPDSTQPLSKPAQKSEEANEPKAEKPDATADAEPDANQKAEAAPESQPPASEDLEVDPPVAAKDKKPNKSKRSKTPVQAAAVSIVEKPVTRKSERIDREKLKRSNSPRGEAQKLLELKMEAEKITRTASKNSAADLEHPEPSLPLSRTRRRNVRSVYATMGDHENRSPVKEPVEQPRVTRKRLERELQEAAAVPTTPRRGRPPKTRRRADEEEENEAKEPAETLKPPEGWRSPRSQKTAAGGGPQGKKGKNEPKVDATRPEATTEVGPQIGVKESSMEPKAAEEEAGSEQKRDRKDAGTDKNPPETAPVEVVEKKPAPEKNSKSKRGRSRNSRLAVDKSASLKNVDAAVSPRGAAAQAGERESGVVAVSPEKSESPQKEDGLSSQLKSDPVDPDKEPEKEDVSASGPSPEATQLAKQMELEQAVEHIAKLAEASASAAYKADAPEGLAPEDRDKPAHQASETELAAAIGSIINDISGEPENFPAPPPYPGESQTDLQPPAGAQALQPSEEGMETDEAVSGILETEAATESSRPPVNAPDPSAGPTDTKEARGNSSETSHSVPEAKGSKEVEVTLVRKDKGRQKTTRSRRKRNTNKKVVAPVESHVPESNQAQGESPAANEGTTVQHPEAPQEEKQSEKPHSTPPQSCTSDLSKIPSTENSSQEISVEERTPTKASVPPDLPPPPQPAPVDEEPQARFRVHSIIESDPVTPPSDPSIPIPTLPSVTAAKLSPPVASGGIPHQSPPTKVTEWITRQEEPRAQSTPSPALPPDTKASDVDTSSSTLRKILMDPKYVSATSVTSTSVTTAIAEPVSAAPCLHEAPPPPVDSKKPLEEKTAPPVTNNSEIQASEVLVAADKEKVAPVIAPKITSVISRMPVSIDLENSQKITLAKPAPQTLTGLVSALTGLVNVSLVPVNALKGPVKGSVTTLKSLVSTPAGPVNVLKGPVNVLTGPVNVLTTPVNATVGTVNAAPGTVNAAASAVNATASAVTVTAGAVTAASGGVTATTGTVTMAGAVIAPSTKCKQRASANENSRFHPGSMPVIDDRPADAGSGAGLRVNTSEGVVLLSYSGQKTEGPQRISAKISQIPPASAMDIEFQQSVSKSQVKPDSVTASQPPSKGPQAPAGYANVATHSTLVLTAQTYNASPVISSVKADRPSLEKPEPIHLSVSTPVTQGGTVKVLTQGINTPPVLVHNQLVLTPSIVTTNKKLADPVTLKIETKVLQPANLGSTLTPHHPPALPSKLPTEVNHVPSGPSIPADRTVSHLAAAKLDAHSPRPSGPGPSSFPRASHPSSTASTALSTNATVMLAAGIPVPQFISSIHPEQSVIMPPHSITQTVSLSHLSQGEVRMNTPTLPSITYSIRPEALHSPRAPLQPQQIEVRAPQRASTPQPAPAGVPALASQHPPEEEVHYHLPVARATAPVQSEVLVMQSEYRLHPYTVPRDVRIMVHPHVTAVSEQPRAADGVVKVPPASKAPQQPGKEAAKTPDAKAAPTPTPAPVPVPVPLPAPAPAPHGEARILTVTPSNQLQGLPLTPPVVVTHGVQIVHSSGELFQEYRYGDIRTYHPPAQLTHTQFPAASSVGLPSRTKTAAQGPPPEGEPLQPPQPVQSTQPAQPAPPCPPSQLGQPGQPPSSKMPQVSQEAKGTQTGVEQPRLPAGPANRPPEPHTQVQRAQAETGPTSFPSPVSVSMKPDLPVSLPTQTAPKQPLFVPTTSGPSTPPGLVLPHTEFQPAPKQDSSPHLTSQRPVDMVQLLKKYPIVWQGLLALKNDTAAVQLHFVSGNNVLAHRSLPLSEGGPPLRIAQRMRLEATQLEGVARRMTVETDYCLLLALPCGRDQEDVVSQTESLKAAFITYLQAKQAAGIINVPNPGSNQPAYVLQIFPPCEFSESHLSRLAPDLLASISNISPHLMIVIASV

Binding signal (affinity relative to RRM2-4), 0.5:
GGUUAAAACUGCUAUUGUUCCAUUGACUGCAGCUUGCAGUUUGAUUUCAAAUUUAAGAUCUUUAAUUCACCUGUAUACUGUAAUUAAGAUAAUUACAAGAGUAAUCAUCUUAUG [ERV 509 (114 nt)]
GAUCAGAGUAACUGUCUUGGCUACAUUCUUUUCUCUCGCCACCUAGCCCCUCUUCUCUUCCAGGUUUCCAAAAUGCCUUUCCAGGCUAGAACCCAGGUUGUGGUCUGCUGG [ERV 302 (111 nt)]
GGAACUCGUUCCUUCUCCUUAGCCCAUCGGGGCCAUGGAUACCUGCUUUUAACCUUUCUCGGUCCAUCGGGACCUCGGAUACCUG [Xist A-repeat (85 nt)]
GGUACCUUAAAUCCUUGCUCUCACCCAAAAGAUUCAGAGACAAUAUCCUUUUAUUACUUAGGGUUUUAGUUUACUACAAAAGUUUCUACAAAAAAUAAAGCUUUUAUAA [ERV 411 (109 nt)]
GAUUCCAGGCAGAACUGUUGAGCAUAGAUAAUUUUCCCCCCUCAGGCCAGCUUUUUCUUUUUUUAAAUUUUGUUAAUAAAAGGGAG [ERV 205 (86 nt)]
GAAAUUUCUCUCUGGGCCUUAUAGCAGGAGUACUCUGUUCCCUUUUGUGUCUUGUCUAAUGUCCGGUGCACCAAUCUGUUCUCGUGUUCAAUUCAUGUAUGUUCGUGUCCAGU [ERV 495 (113 nt)]
